# B1: Speckle-type POZ protein (Homo sapiens), O43791 (parent)
# chain: MSRVPSPPPPAEMSSGPVAESWCYTQIKVVKFSYMWTINNFSFCREEMGEVIKSSTFSSGANDKLKWCLRVNPKGLDEESKDYLSLYLLLVSCPKSEVRAKFKFSILNAKGEETKAMESQRAYRFVQGKDWGFKKFIRRDFLLDEANGLLPDDKLTLFCEVSVVQDSVNISGQNTMNMVKVPECRLADELGGLWENSRFTDCCLCVAGQEFQAHKAILAARSPVFSAMFEHEMEESKKNRVEINDVEPEVFKEMMCFIYTGKAPNLDKMADDLLAAADKYALERLKVMCEDALCSNLSVENAAEILILADLHSADQLKTQAVDFINYHASDVLETSGWKSMVVSHPHLVAEAYRSLASAQCPFLGPPRKRLKQS
# Variants of: B1
# Conditions: with mk14_human MAPK14, Q16539
# Sequence of mk14_human MAPK14, Q16539 (Q16539 whole entry): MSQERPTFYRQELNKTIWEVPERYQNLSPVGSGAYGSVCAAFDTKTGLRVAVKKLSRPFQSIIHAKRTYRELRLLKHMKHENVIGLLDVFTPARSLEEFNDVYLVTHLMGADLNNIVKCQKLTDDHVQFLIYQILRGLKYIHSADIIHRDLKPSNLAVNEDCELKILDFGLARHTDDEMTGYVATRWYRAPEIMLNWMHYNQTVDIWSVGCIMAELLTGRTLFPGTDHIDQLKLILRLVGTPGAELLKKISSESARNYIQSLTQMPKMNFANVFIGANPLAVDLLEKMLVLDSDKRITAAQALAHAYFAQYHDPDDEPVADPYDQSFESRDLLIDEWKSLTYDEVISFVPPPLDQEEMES
row,effect of a mutation on the interaction,Variant
1,with no effect,MSRVPSPPPPAEMSSGPVAESWCYTQIKVVKFSYMWTINNFSFCREEMGEVIKSSTFSSGANDKLKWCLRVNPKGLDEESKDYLSLYLLLVSCPKSEVRAKFKFSILNAKGEETKAMESQRAYRFVQGKDWGVKKFIRRDFLLDEANGLLPDDKLTLFCEVSVVQDSVNISGQNTMNMVKVPECRLADELGGLWENSRFTDCCLCVAGQEFQAHKAILAARSPVFSAMFEHEMEESKKNRVEINDVEPEVFKEMMCFIYTGKAPNLDKMADDLLAAADKYALERLKVMCEDALCSNLSVENAAEILILADLHSADQLKTQAVDFINYHASDVLETSGWKSMVVSHPHLVAEAYRSLASAQCPFLGPPRKRLKQS [F133V]

# Variants of: B1
# Conditions: with mk03_human MAPK3, P27361
# Sequence of mk03_human MAPK3, P27361 (P27361 whole entry): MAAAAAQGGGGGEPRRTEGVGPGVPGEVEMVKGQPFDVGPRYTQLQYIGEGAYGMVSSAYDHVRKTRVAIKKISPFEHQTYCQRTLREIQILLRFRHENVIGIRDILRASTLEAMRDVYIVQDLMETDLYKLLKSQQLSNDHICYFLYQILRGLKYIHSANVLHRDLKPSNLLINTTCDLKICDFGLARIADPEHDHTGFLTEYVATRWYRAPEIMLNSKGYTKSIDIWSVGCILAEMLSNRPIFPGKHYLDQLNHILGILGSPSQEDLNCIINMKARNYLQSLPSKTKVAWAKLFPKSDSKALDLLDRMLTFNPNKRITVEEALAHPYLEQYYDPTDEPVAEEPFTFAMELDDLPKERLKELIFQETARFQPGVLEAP
row,effect of a mutation on the interaction,Variant
1,with no effect,MSRVPSPPPPAEMSSGPVAESWCYTQIKVVKFSYMWTINNFSFCREEMGEVIKSSTFSSGANDKLKWCLRVNPKGLDEESKDYLSLYLLLVSCPKSEVRAKFKFSILNAKGEETKAMESQRAYRFVQGKDWGVKKFIRRDFLLDEANGLLPDDKLTLFCEVSVVQDSVNISGQNTMNMVKVPECRLADELGGLWENSRFTDCCLCVAGQEFQAHKAILAARSPVFSAMFEHEMEESKKNRVEINDVEPEVFKEMMCFIYTGKAPNLDKMADDLLAAADKYALERLKVMCEDALCSNLSVENAAEILILADLHSADQLKTQAVDFINYHASDVLETSGWKSMVVSHPHLVAEAYRSLASAQCPFLGPPRKRLKQS [F133V]

# Variants of: B1
# Conditions: with mk04_human MAPK4, P31152
row,effect of a mutation on the interaction,Variant
1,with no effect,MSRVPSPPPPAEMSSGPVAESWCYTQIKVVKFSYMWTINNFSFCREEMGEVIKSSTFSSGANDKLKWCLRVNPKGLDEESKDYLSLYLLLVSCPKSEVRAKFKFSILNAKGEETKAMESQRAYRFVQGKDWGVKKFIRRDFLLDEANGLLPDDKLTLFCEVSVVQDSVNISGQNTMNMVKVPECRLADELGGLWENSRFTDCCLCVAGQEFQAHKAILAARSPVFSAMFEHEMEESKKNRVEINDVEPEVFKEMMCFIYTGKAPNLDKMADDLLAAADKYALERLKVMCEDALCSNLSVENAAEILILADLHSADQLKTQAVDFINYHASDVLETSGWKSMVVSHPHLVAEAYRSLASAQCPFLGPPRKRLKQS [F133V]

# Variants of: B1
# Conditions: with mk06_human MAPK6, Q16659
row,effect of a mutation on the interaction,Variant
1,with no effect,MSRVPSPPPPAEMSSGPVAESWCYTQIKVVKFSYMWTINNFSFCREEMGEVIKSSTFSSGANDKLKWCLRVNPKGLDEESKDYLSLYLLLVSCPKSEVRAKFKFSILNAKGEETKAMESQRAYRFVQGKDWGVKKFIRRDFLLDEANGLLPDDKLTLFCEVSVVQDSVNISGQNTMNMVKVPECRLADELGGLWENSRFTDCCLCVAGQEFQAHKAILAARSPVFSAMFEHEMEESKKNRVEINDVEPEVFKEMMCFIYTGKAPNLDKMADDLLAAADKYALERLKVMCEDALCSNLSVENAAEILILADLHSADQLKTQAVDFINYHASDVLETSGWKSMVVSHPHLVAEAYRSLASAQCPFLGPPRKRLKQS [F133V]

# Variants of: B1
# Conditions: with sin1_human MAPKAP1, Q9BPZ7
# Sequence of sin1_human MAPKAP1, Q9BPZ7 (Q9BPZ7 whole entry): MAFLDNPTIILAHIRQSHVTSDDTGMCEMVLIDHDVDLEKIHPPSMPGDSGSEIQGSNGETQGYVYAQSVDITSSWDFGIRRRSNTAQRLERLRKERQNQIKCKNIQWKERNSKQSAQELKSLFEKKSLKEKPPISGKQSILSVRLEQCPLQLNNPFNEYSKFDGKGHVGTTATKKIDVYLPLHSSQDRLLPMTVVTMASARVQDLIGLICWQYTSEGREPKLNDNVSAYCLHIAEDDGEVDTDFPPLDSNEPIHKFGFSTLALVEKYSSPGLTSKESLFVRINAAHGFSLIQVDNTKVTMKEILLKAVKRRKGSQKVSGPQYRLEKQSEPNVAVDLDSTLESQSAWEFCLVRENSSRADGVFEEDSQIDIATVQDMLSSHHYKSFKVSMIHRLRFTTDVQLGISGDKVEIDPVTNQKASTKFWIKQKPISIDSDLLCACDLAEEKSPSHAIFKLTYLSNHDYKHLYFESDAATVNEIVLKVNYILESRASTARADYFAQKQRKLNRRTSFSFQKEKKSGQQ
row,effect of a mutation on the interaction,Variant
1,with no effect,MSRVPSPPPPAEMSSGPVAESWCYTQIKVVKFSYMWTINNFSFCREEMGEVIKSSTFSSGANDKLKWCLRVNPKGLDEESKDYLSLYLLLVSCPKSEVRAKFKFSILNAKGEETKAMESQRAYRFVQGKDWGVKKFIRRDFLLDEANGLLPDDKLTLFCEVSVVQDSVNISGQNTMNMVKVPECRLADELGGLWENSRFTDCCLCVAGQEFQAHKAILAARSPVFSAMFEHEMEESKKNRVEINDVEPEVFKEMMCFIYTGKAPNLDKMADDLLAAADKYALERLKVMCEDALCSNLSVENAAEILILADLHSADQLKTQAVDFINYHASDVLETSGWKSMVVSHPHLVAEAYRSLASAQCPFLGPPRKRLKQS [F133V]

# Variants of: B1
# Conditions: with mcl1_human MCL1, Q07820
# Sequence of mcl1_human MCL1, Q07820 (Q07820 whole entry): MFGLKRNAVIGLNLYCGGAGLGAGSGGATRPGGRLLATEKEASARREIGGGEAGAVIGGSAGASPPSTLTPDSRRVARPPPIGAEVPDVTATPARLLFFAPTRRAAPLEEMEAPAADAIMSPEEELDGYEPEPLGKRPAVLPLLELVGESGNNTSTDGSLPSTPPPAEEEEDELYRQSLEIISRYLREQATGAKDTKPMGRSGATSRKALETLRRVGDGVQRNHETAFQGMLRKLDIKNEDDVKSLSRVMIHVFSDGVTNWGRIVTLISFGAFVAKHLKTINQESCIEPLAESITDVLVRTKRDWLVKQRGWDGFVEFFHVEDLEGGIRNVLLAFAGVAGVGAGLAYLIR
row,effect of a mutation on the interaction,Variant
1,with no effect,MSRVPSPPPPAEMSSGPVAESWCYTQIKVVKFSYMWTINNFSFCREEMGEVIKSSTFSSGANDKLKWCLRVNPKGLDEESKDYLSLYLLLVSCPKSEVRAKFKFSILNAKGEETKAMESQRAYRFVQGKDWGVKKFIRRDFLLDEANGLLPDDKLTLFCEVSVVQDSVNISGQNTMNMVKVPECRLADELGGLWENSRFTDCCLCVAGQEFQAHKAILAARSPVFSAMFEHEMEESKKNRVEINDVEPEVFKEMMCFIYTGKAPNLDKMADDLLAAADKYALERLKVMCEDALCSNLSVENAAEILILADLHSADQLKTQAVDFINYHASDVLETSGWKSMVVSHPHLVAEAYRSLASAQCPFLGPPRKRLKQS [F133V]

# Variants of: B1
# Conditions: with mdm2_human MDM2, Q00987
# Sequence of mdm2_human MDM2, Q00987 (Q00987 whole entry, looked up): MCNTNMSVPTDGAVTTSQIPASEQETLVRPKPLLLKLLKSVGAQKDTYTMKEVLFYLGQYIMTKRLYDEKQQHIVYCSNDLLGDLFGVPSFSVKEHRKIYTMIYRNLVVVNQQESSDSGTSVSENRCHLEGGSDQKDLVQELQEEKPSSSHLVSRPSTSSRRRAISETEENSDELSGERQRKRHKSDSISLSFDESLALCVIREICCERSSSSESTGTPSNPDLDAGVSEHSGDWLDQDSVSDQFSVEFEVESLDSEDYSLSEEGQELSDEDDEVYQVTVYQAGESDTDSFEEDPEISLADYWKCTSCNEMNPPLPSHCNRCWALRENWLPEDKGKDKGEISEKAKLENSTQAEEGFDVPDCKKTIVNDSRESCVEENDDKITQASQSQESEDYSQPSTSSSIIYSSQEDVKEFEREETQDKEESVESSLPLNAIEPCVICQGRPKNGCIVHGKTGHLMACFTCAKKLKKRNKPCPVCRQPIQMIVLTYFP
row,effect of a mutation on the interaction,Variant
1,with no effect,MSRVPSPPPPAEMSSGPVAESWCYTQIKVVKFSYMWTINNFSFCREEMGEVIKSSTFSSGANDKLKWCLRVNPKGLDEESKDYLSLYLLLVSCPKSEVRAKFKFSILNAKGEETKAMESQRAYRFVQGKDWGVKKFIRRDFLLDEANGLLPDDKLTLFCEVSVVQDSVNISGQNTMNMVKVPECRLADELGGLWENSRFTDCCLCVAGQEFQAHKAILAARSPVFSAMFEHEMEESKKNRVEINDVEPEVFKEMMCFIYTGKAPNLDKMADDLLAAADKYALERLKVMCEDALCSNLSVENAAEILILADLHSADQLKTQAVDFINYHASDVLETSGWKSMVVSHPHLVAEAYRSLASAQCPFLGPPRKRLKQS [F133V]

# Variants of: B1
# Conditions: with mitf_human MITF
row,effect of a mutation on the interaction,Variant
1,with no effect,MSRVPSPPPPAEMSSGPVAESWCYTQIKVVKFSYMWTINNFSFCREEMGEVIKSSTFSSGANDKLKWCLRVNPKGLDEESKDYLSLYLLLVSCPKSEVRAKFKFSILNAKGEETKAMESQRAYRFVQGKDWGVKKFIRRDFLLDEANGLLPDDKLTLFCEVSVVQDSVNISGQNTMNMVKVPECRLADELGGLWENSRFTDCCLCVAGQEFQAHKAILAARSPVFSAMFEHEMEESKKNRVEINDVEPEVFKEMMCFIYTGKAPNLDKMADDLLAAADKYALERLKVMCEDALCSNLSVENAAEILILADLHSADQLKTQAVDFINYHASDVLETSGWKSMVVSHPHLVAEAYRSLASAQCPFLGPPRKRLKQS [F133V]

# Variants of: B1
# Conditions: with mlh1_human MLH1, P40692
# Sequence of mlh1_human MLH1, P40692 (P40692 whole entry): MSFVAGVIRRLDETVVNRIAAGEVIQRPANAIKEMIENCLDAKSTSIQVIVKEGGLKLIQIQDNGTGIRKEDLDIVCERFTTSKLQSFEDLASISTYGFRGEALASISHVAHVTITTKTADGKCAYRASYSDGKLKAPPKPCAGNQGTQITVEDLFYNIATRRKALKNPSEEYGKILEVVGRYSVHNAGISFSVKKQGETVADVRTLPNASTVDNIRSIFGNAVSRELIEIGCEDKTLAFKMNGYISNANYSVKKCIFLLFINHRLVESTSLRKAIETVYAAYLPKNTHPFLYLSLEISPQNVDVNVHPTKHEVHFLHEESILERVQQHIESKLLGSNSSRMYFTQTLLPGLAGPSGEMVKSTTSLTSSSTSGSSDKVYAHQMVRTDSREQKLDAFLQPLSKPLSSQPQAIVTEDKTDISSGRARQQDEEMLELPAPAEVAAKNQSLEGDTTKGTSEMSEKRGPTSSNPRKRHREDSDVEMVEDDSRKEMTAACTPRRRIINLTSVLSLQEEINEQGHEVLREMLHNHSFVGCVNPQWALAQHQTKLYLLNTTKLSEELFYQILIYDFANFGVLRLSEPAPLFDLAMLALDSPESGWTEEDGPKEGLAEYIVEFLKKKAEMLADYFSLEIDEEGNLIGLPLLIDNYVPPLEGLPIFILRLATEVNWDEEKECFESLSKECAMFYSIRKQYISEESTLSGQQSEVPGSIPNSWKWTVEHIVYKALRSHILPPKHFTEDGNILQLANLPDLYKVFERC
row,effect of a mutation on the interaction,Variant
1,with no effect,MSRVPSPPPPAEMSSGPVAESWCYTQIKVVKFSYMWTINNFSFCREEMGEVIKSSTFSSGANDKLKWCLRVNPKGLDEESKDYLSLYLLLVSCPKSEVRAKFKFSILNAKGEETKAMESQRAYRFVQGKDWGVKKFIRRDFLLDEANGLLPDDKLTLFCEVSVVQDSVNISGQNTMNMVKVPECRLADELGGLWENSRFTDCCLCVAGQEFQAHKAILAARSPVFSAMFEHEMEESKKNRVEINDVEPEVFKEMMCFIYTGKAPNLDKMADDLLAAADKYALERLKVMCEDALCSNLSVENAAEILILADLHSADQLKTQAVDFINYHASDVLETSGWKSMVVSHPHLVAEAYRSLASAQCPFLGPPRKRLKQS [F133V]

# Variants of: B1
# Conditions: with mtor_human MTOR
row,effect of a mutation on the interaction,Variant
1,with no effect,MSRVPSPPPPAEMSSGPVAESWCYTQIKVVKFSYMWTINNFSFCREEMGEVIKSSTFSSGANDKLKWCLRVNPKGLDEESKDYLSLYLLLVSCPKSEVRAKFKFSILNAKGEETKAMESQRAYRFVQGKDWGVKKFIRRDFLLDEANGLLPDDKLTLFCEVSVVQDSVNISGQNTMNMVKVPECRLADELGGLWENSRFTDCCLCVAGQEFQAHKAILAARSPVFSAMFEHEMEESKKNRVEINDVEPEVFKEMMCFIYTGKAPNLDKMADDLLAAADKYALERLKVMCEDALCSNLSVENAAEILILADLHSADQLKTQAVDFINYHASDVLETSGWKSMVVSHPHLVAEAYRSLASAQCPFLGPPRKRLKQS [F133V]

# Variants of: B1
# Conditions: with myb_human MYB
row,effect of a mutation on the interaction,Variant
1,with no effect,MSRVPSPPPPAEMSSGPVAESWCYTQIKVVKFSYMWTINNFSFCREEMGEVIKSSTFSSGANDKLKWCLRVNPKGLDEESKDYLSLYLLLVSCPKSEVRAKFKFSILNAKGEETKAMESQRAYRFVQGKDWGVKKFIRRDFLLDEANGLLPDDKLTLFCEVSVVQDSVNISGQNTMNMVKVPECRLADELGGLWENSRFTDCCLCVAGQEFQAHKAILAARSPVFSAMFEHEMEESKKNRVEINDVEPEVFKEMMCFIYTGKAPNLDKMADDLLAAADKYALERLKVMCEDALCSNLSVENAAEILILADLHSADQLKTQAVDFINYHASDVLETSGWKSMVVSHPHLVAEAYRSLASAQCPFLGPPRKRLKQS [F133V]

# Variants of: B1
# Conditions: with mybb_human MYBL2, P10244
# Sequence of mybb_human MYBL2, P10244 (P10244 whole entry): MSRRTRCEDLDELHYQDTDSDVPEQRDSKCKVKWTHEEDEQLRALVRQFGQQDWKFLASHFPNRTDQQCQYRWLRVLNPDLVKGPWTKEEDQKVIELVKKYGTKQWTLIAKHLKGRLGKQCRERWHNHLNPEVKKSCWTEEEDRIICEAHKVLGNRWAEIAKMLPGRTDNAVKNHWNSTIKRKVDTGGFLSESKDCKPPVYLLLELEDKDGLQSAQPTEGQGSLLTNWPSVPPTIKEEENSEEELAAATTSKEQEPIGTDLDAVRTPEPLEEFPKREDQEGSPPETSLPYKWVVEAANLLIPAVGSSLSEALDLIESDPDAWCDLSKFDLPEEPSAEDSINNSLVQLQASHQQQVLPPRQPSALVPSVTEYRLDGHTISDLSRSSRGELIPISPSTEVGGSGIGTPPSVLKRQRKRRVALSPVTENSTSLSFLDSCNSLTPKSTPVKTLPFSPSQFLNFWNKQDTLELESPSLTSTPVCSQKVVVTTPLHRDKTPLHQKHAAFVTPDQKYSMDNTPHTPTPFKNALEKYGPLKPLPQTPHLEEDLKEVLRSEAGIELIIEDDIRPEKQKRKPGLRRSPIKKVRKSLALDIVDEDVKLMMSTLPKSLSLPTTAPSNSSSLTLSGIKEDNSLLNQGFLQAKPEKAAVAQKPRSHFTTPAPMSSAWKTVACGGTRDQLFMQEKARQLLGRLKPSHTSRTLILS
row,effect of a mutation on the interaction,Variant
1,with no effect,MSRVPSPPPPAEMSSGPVAESWCYTQIKVVKFSYMWTINNFSFCREEMGEVIKSSTFSSGANDKLKWCLRVNPKGLDEESKDYLSLYLLLVSCPKSEVRAKFKFSILNAKGEETKAMESQRAYRFVQGKDWGVKKFIRRDFLLDEANGLLPDDKLTLFCEVSVVQDSVNISGQNTMNMVKVPECRLADELGGLWENSRFTDCCLCVAGQEFQAHKAILAARSPVFSAMFEHEMEESKKNRVEINDVEPEVFKEMMCFIYTGKAPNLDKMADDLLAAADKYALERLKVMCEDALCSNLSVENAAEILILADLHSADQLKTQAVDFINYHASDVLETSGWKSMVVSHPHLVAEAYRSLASAQCPFLGPPRKRLKQS [F133V]

# Variants of: B1
# Conditions: with myc_human MYC
row,effect of a mutation on the interaction,Variant
1,with no effect,MSRVPSPPPPAEMSSGPVAESWCYTQIKVVKFSYMWTINNFSFCREEMGEVIKSSTFSSGANDKLKWCLRVNPKGLDEESKDYLSLYLLLVSCPKSEVRAKFKFSILNAKGEETKAMESQRAYRFVQGKDWGVKKFIRRDFLLDEANGLLPDDKLTLFCEVSVVQDSVNISGQNTMNMVKVPECRLADELGGLWENSRFTDCCLCVAGQEFQAHKAILAARSPVFSAMFEHEMEESKKNRVEINDVEPEVFKEMMCFIYTGKAPNLDKMADDLLAAADKYALERLKVMCEDALCSNLSVENAAEILILADLHSADQLKTQAVDFINYHASDVLETSGWKSMVVSHPHLVAEAYRSLASAQCPFLGPPRKRLKQS [F133V]

# Variants of: B1
# Conditions: with mycn_human MYCN
row,effect of a mutation on the interaction,Variant
1,with no effect,MSRVPSPPPPAEMSSGPVAESWCYTQIKVVKFSYMWTINNFSFCREEMGEVIKSSTFSSGANDKLKWCLRVNPKGLDEESKDYLSLYLLLVSCPKSEVRAKFKFSILNAKGEETKAMESQRAYRFVQGKDWGVKKFIRRDFLLDEANGLLPDDKLTLFCEVSVVQDSVNISGQNTMNMVKVPECRLADELGGLWENSRFTDCCLCVAGQEFQAHKAILAARSPVFSAMFEHEMEESKKNRVEINDVEPEVFKEMMCFIYTGKAPNLDKMADDLLAAADKYALERLKVMCEDALCSNLSVENAAEILILADLHSADQLKTQAVDFINYHASDVLETSGWKSMVVSHPHLVAEAYRSLASAQCPFLGPPRKRLKQS [F133V]

# Variants of: B1
# Conditions: with ncoa3_human NCOA3, Q9Y6Q9
# Sequence of ncoa3_human NCOA3, Q9Y6Q9 (Q9Y6Q9 whole entry, looked up): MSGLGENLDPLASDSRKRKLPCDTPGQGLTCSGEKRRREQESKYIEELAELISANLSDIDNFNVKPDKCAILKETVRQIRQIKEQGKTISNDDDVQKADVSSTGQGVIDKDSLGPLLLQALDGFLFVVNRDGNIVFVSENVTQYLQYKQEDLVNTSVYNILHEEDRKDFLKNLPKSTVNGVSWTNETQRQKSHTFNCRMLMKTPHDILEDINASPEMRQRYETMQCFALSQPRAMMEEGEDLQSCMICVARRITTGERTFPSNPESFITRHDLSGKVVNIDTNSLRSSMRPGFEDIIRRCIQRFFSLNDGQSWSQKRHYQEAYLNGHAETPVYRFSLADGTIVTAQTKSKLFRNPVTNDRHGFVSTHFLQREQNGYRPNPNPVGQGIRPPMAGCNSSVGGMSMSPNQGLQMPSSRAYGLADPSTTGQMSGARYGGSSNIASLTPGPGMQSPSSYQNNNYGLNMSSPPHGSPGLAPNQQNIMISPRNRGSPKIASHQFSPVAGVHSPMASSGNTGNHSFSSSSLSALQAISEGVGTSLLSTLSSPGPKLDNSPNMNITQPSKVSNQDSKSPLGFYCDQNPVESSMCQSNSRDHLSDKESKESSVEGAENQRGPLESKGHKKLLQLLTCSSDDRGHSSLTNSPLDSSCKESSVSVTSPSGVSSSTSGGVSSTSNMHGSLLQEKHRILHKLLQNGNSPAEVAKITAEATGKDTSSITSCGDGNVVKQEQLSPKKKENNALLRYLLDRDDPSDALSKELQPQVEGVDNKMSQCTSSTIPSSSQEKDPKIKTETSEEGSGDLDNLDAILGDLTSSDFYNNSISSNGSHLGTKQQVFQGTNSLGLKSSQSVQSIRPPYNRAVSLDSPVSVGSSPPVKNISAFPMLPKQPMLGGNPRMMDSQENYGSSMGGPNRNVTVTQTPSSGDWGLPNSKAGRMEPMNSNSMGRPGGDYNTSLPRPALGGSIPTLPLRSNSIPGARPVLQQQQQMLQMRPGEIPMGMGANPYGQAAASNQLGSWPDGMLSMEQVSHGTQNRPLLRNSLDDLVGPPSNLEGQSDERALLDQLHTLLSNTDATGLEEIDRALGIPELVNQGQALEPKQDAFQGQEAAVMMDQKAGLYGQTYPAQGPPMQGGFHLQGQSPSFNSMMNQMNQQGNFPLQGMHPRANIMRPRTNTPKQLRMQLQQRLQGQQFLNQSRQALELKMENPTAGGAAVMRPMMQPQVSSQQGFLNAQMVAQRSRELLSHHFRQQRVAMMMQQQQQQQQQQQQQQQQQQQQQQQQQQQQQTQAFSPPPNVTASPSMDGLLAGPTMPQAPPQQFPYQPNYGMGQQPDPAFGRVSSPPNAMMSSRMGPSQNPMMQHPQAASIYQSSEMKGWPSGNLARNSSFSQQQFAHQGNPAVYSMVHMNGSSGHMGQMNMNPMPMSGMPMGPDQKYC
row,effect of a mutation on the interaction,Variant
1,with no effect,MSRVPSPPPPAEMSSGPVAESWCYTQIKVVKFSYMWTINNFSFCREEMGEVIKSSTFSSGANDKLKWCLRVNPKGLDEESKDYLSLYLLLVSCPKSEVRAKFKFSILNAKGEETKAMESQRAYRFVQGKDWGVKKFIRRDFLLDEANGLLPDDKLTLFCEVSVVQDSVNISGQNTMNMVKVPECRLADELGGLWENSRFTDCCLCVAGQEFQAHKAILAARSPVFSAMFEHEMEESKKNRVEINDVEPEVFKEMMCFIYTGKAPNLDKMADDLLAAADKYALERLKVMCEDALCSNLSVENAAEILILADLHSADQLKTQAVDFINYHASDVLETSGWKSMVVSHPHLVAEAYRSLASAQCPFLGPPRKRLKQS [F133V]
